Drawing on patent US6303357A, “L-α-glycerophosphate oxidase gene, recombinant DNA, and method for producing modified L-α-glycerophosphate oxidase gene” (priority 2000, dated 2001), this text covers Km for three substances.

Common to all, as to type: biochemical, Enterococcus faecium
Data set [1] concerns O=P(O)(O)OCC(O)CO. The data set can be described thus: Km value of modified GPO Ala 225/Gly 420. The settings on record: other: Ala 225, Gly 420, 37° C., pH 7.0 activity assay. As for the experimental part:
(§1) According to the invention, method for the measurement GPO activity is as follows unless otherwise noted.
(§2) 300 mM Sodium (±)-1-glycerophosphate n-hydrate
(§3) A 1.0 ml portion of a reaction solution having the above composition is put into a test tube and subjected to 5 minutes of preliminary incubation at 37° C., and then 20 μl of an enzyme solution is added thereto to carry out 5 minutes of the reaction at 37° C. After the reaction, 2.0 ml of 0.5% SDS solution is added to terminate the reaction, and calorimetric determination is carried out at a wavelength of 600 nm. An activity capable of forming 1 μmole of hydrogen peroxide within 1 minute was defined as 1 unit (U). [formula]
(§4) The resulting cells were collected by centrifugation, washed with 10 mM Tris-HCl buffer (pH 8.0) containing 0.1 M sodium chloride and 1 mM EDTA and then suspended in a solution prepared by adding 1 mg/ml of lysozyme to 50 mM potassium phosphate buffer (pH 7.0) containing 10 mM EDTA and 0.1% Triton X-100, subsequently carrying out 2 hours of cell lysis at 4° C. After the cell lysis, this was subjected to ultrasonic disintegration and then centrifuged, and the supernatant was used as the enzyme solution to measure its enzyme activity, heat resistance and Km value.
(§5) In addition, improvement of two or more properties was found by a combination of these mutations. […]

Data set [2] concerns O=P(O)(O)OCC(O)CO. The data set can be described thus: Km value of modified GPO Phe 130/Ala 225. The following applies: other: Phe 130, Ala 225, 37° C., pH 7.0 activity assay. How it is done:
as §1, §2, §3, §4, §5

Data set [3] relates to O=P(O)(O)OCC(O)CO. The experiment in a line: Km value of GPO (wild type control, E. coli DH5/pGPO97). The following applies: other: wild type GPO, 37° C., pH 7.0 activity assay. How it is done:
as §1, §2, §3, §4, §5

As to “Enterococcus faecium No. 7044 L-α-glycerophosphate oxidase (GPO) variant Ala 225/Gly 420 (Enterococcus faecium DO; D212G/D427G/S17A)”, in the data set with O=P(O)(O)OCC(O)CO [1], the Km was determined as 28.8 mM.
For the substance “Enterococcus faecium No. 7044 L-α-glycerophosphate oxidase (GPO) variant Phe 130/Ala 225 (Enterococcus faecium DO; L137F/L267F/S362A)”, the Km in the data set with O=P(O)(O)OCC(O)CO [2] came out at 4.6 mM.
In the case of “Enterococcus faecium No. 7044 L-α-glycerophosphate oxidase (GPO), wild type, Sequence No. 1 (Enterococcus faecium DO)”, the Km with O=P(O)(O)OCC(O)CO [3] is 23.2 mM.
